Consider ten molecules from US20030059862A1 (Human Genome Sciences, published 2003).

Assay [1] deals with T1, biotinylated APRIL (Homo sapiens (Human), UniProt O75888 105-250, biotinylated using NHS-biotin at a molar ratio of 20:1 biotin:APRIL).
T1 construct: also called bio-APRIL
T1 sequence: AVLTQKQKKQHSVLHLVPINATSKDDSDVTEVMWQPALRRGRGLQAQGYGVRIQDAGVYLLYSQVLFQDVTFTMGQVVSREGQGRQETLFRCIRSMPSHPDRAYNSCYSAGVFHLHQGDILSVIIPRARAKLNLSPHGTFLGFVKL
The assay can be described thus: scFv inhibition of bio-APRIL (50 ng/ml) binding to coated TACI fusion protein, streptavidin-DELFIA; partial inhibition. On the procedure: (§1) APRIL binds to BCMA with higher affinity than its binds to TACI so, inhibition of biotinylated APRIL (bio-APRIL) binding to BCMA can be used to screen selection outputs as periplasmic extracts for neutralizers and then assess potency of the positives as purified scFvs. To perform this assay, each well of a black 96 well flat-bottomed plate (Costar) was coated with 1.25 ng BCMA fusion protein overnight at 4° C. The wells were blocked with 3% milk in PBS for an hour at room temperature. ScFv were then added in the presence of 5 ng/ml biotinylated APRIL for 90 minutes at room temperature. Binding of biotinylated APRIL was detected via streptavidin Delfia (Wallac) added at a 1:1000 dilution in Delfia assay buffer (Wallac). After an hour at room temperature this was read on a Wallac 1420 workstation at 620 nm.
(§2) An assay similar to that described above can also be used to test if anti-APRIL antibodies of the invention are able to inhibit binding of bio-APRIL to TACI. In this case, the plate was coated with 2.5 ng TACI fusion protein per well and scFv were added in the presence of 50 ng/ml biotinylated APRIL instead of 5 ng/ml. Otherwise, the method was identical to that for the BCMA:bio-APRIL assay.

Assay [2] addresses T1, biotinylated APRIL. The assay can be described thus: scFv inhibition of bio-APRIL (5 ng/ml) binding to coated BCMA fusion protein, streptavidin-DELFIA. How it is done: as §1
Assay [3] addresses T1, biotinylated APRIL. The assay can be described thus: scFv inhibition of bio-APRIL (50 ng/ml) binding to coated TACI fusion protein, streptavidin-DELFIA. How it is done: as §1, §2
Assay [4] addresses T1, biotinylated APRIL. The assay can be described thus: scFv inhibition of bio-APRIL (5 ng/ml) binding to coated BCMA fusion protein, streptavidin-DELFIA; partial inhibition. How it is done: as §1
In assay [5] the target is T2, TACI (Homo sapiens (Human), UniProt O14836 1-154, limits assumed).
T2 sequence: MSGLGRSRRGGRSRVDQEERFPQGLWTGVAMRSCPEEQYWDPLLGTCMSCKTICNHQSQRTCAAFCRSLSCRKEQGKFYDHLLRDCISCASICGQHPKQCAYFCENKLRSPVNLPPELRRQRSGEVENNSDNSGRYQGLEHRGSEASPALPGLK
Nature of the assay: Specificity phage ELISA (scFv on phage, anti-M13-HRP, A450). How it is done: (§3) Flexible 96-well plates (Falcon) were coated overnight at 4° C. with each antigen (1 μg/ml). All antigens were coated in PBS. After coating, the solutions were removed from the wells, and the plates were blocked for 1 hour at room temperature in MPBS. The plates were washed 3 times with PBS and then 50 μl of pre-blocked phage was added to each well. The plates were incubated at room temperature for 1 hour and then washed with 3 changes of PBST followed by 3 changes of PBS.
(§4) To each well, 50 μl of an anti-M13-HRP conjugate (Pharmacia) at a 1 in 5000 dilution in MPBS was added and the plates incubated at room temperature for 1 hour. Each plate was washed three times with PBST followed by three times with PBS.
(§5) Fifty μl of TMB substrate was then added to each well, and incubated at room temperature for 30 minutes or until color development. The reaction was stopped by the addition of 25 μl of 0.5 M H₂SO₄. The signal generated was measured by reading the absorbance at 450 nm (A₄₅₀) using a microtitre plate reader (Bio-Rad 3550).
On the technique in general: An ELISA detects its analyte on a solid surface through an enzyme-linked reagent.

In assay [6] the target is T3, BLyS (Homo sapiens (Human), UniProt Q9Y275 134-285).
T3 construct: also called Neutrokine-alpha
Described as above. On the procedure: as §3, §4, §5

Assay [7] deals with T4, BCMA (Homo sapiens (Human), UniProt Q02223 1-48, limits assumed).
T4 chain: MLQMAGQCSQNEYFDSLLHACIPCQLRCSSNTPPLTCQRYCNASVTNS
Described as above. How it is done:
as §3, §4, §5

For assay [8], the target named is T5, TNF-α (Homo sapiens (Human), UniProt P01375 77-233).
T5 construct: also called TNF-alpha
The description is as above. How it is done: as §3, §4, §5

Assay [9] deals with T6, BSA (UniProt P02769 25-607).
T6 construct: Unrelated control antigen coated at 1 µg/ml in the phage ELISAs
The assay is described as above. On the procedure: as §3, §4, §5

Assay [10] addresses T7, LIGHT (Homo sapiens (Human), UniProt O43557 83-240, limits assumed).
T7 chain: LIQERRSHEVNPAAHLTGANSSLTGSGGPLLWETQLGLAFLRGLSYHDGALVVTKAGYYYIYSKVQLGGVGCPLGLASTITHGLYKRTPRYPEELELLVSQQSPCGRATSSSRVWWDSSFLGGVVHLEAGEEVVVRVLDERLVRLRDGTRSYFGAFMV
The description is as above. How it is done: as §3, §4, §5

Assay [11] concerns the target T1, biotinylated APRIL. The assay can be described thus: receptor binding inhibition assay: scFv titrated with bio-APRIL (5 ng/ml); blocked binding of bio-APRIL to plate-coated BCMA fusion protein; streptavidin Delfia, fluorescence counts. How it is done:
as §1

Substitutions are numbered along the chain they refer to.

T6 sequence (P02769 25-607 limits assumed): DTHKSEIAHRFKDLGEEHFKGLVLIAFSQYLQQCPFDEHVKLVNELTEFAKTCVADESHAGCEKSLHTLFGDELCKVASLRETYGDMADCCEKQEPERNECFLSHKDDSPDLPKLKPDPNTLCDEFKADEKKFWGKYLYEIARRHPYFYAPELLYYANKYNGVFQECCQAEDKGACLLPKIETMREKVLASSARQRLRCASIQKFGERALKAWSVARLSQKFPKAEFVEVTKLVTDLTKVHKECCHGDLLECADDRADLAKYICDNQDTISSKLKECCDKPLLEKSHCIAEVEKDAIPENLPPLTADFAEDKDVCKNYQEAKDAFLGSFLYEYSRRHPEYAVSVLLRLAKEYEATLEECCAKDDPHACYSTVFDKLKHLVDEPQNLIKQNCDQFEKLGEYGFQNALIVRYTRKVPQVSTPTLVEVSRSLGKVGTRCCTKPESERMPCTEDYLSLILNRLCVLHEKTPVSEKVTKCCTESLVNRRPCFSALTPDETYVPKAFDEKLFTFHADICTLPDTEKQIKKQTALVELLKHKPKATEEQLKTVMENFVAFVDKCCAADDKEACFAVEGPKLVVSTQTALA
T3 sequence (Q9Y275 134-285 limits assumed): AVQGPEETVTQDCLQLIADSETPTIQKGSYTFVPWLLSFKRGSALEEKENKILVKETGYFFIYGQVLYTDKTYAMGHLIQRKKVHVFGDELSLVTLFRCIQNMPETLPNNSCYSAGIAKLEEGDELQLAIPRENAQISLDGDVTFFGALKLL
T5 sequence (P01375 77-233 limits assumed): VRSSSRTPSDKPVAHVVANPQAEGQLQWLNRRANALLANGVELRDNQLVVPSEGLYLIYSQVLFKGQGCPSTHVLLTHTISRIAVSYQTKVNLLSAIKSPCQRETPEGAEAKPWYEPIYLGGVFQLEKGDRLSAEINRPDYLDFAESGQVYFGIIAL

B1: A053H04 (scFv)
scFv: EVQLVQSGAEVKKPGSSVKVSCKASGGTFSNYAISWVRQAPGQGLEWMGGIIPLFDTPNYAQKFQGRVTITADESTSTAYMELSSLRSEDTAVYYCARGNTGPRPFDPWGKGTTVTVSSGGGGSGGGGSGGGGSAQAVLTQPSSVSGAPGQRVTVSCTGSSSNIGAGYEVNWYQQLPGTAPKLLIYGDTNRPSGVPDRFSGSKSGTSASLAITGLQAEDEANYYCQSYDSGPGGPVVFGGGTKLTVLG
What is called IC50 is the concentration at which inhibition is half-maximal. Consider B1, for which the results for the IC50 in assay [1] and in [2] were 139 nM and 25 nM, respectively.

B2: A013B07 (scFv)
scFv: EVQLVQSGAEVKKPGASVKVSCKTSGYTFTDNYMHWVRQAPGQGLEWMGWISPNSSTTLYAQKFRGRVTLTRDTSVSTAYMELSGLDSDDTALYFCARGGRLAGSTVFTPAFEYWGQGTMVTVSSGGGGSGGGGSGGGGSAQSVLTQPPSVSEAPRQRVTISCSGSSSNIGANAVNWYQQLPGKAPKLLIYFDDLLPSGVSDRFSGSKSGTSASLAISGLQSEDEADYYCAAWDDSLNGVVFGGGTKLTVLG
Consider B2, for which the IC50 was found to be 10 nM in [3] and 7.7 nM in assay [2].

B3: A020F03 (scFv)
scFv: B2 scFv with Q117R, S143A, P149S, A172N, N176K, F192Y, V240Y, G244T, L248V
In the case of B3, the IC50 stood at 3.5 nM in assay [3] and 12 nM in [2].

B4: A027B01 (scFv)
scFv: QVQLLQSAAEVKKPGSSVKVSCKTSGGTFRNHAISWVRQAPGQGLEWMGGIIPIFGTANYAQKFQGRVTITADESTSTAYMELSSLRSEDTAVYYCARGISAGMDVWGRGTLVTVSSGGGGSGGGGSGGGGSDIQMTQSPSFLSASIGDRVTITCRASEGIYHWLAWYQQKPGKAPKLLIYKASSLASGAPSRFSGSGSGTDFTLTISSLQPDDFATYYCQQYSNYPLTFGGGTKLEIKR
Turning to B4, the IC50 in assay [1] worked out at 94 nM; in assay [4] it was 3.1 nM.

B5: A004G02 (scFv)
scFv: QVQLVQSGAEVKKPGSSVKVSCKASGGTFSSYGIRWVRQAPGQGLEWMGGIIPIFGTANYAQKFQGRVTITADEYTSTAYMELSSLRSEDTAVYYCARSNPQYDAFDIWGQGTTVTVSSGGGGSGGGGSGGGGSSYVLTQPPSVSGTPGQRVTVSCSGGRSNIGSNTVKWYQQLPGTAPKLLIYGNDQRPSGVPDRFSGSKSGNTASLTVSGLQVEDEADYYCQSYDSSLRGSVFGGGTKLTVLG
Regarding B5, the binding result in [5], in assay [6], in assay [7], in assay [8], in [9] and in [10] was “no binding (tested: antigen coated at 1 µg/ml)” in each case. Also, the IC50 is 800 nM in assay [3] and 19 nM in assay [2].

B6: A027A11 (scFv)
scFv: QVQLQQSGAEVKKPGSSVKVSCKASGGTFSTYAITWVRQAPGQGLEWMGDIIPVFGIPNYAQMFQDRVTITADESTSTAYLELNSLGAEDTAVYYCARGSQAFEIWGKGTTVTVSSGGGGSGGGGSGGGGSQSVLTQPASVSGSPGQSITISCTGTSSDVGGYNYVSWYQQHPGKAPKLMIYEGSKRPSGVSNRFSGSKSGNTASLTISGLQAEDEADYYCSSYTTRSTRVFGGGTKLTVLG
For B6, the IC50 in assay [1] is 5.6 nM; in [2], 2.7 nM.

B7: A034G03 (scFv)
scFv: QVQLQQSGAEVKKPGSSVKVSCKASGGTFSNYAISWVRQAPGQGLEWMGGIIPLFDTPNYAQKFQGRVTITADESTSTAYMELSSLRSEDTAVYYCARGNTGPRPFDPWGQGTLVTVSSGGGGSGGGGSGGGGSAQAVLTQPSSVSGAPGQRVTISCSATSPNIGAGDEIHWYQVSPGKAPKLLIYGDIKRPSGVSDRFSGSKSGTTASLAITGLRPEDEADYYCQSYDRTLSGSVVFGGGTKVTVLG
Turning to B7, the IC50 in assay [1] stood at 36 nM; in [2], 6 nM.

B8: A034H05 (scFv)
scFv: EVQLVQSGAEVKKPGSSVKVSCKVSGGSFPNYAINWVRQAPGQGLEWMGSLVPVFLTPNYAERFQDRVTITADESTSTAYMELRSLRSDDTAVFYCARSGGDGYRDYGMDLWGRGTLVTVSSGGGGSGGGGSGGGGSAQSVLTQPPSASGTPGQRVTISCSGSSSNIGRNTVNWFQQLPGTAPKLLIYSSNQRPSGVPDRFAGSKSGTSASLAISGLQSEDEADYYCAAWDDSLNGLVFGGGTKLTVLG
With B8, the IC50 is 13 nM in [1] and 10 nM in assay [2].

B9: A030D09 (scFv)
scFv: QVQLQQSGAEVKKPGSSVKVSCKTSGGAFSHYAIHWVRLAPGQGLEWMGDIIPVYGSTTYAQKFQDRVTISADESTSTAYMELSSLRSEDTAVYYCARSWYYDILTGYWDYYYMDVWGKGTLVTVSSGGGGSGGGGSGGGGSSELTQDPAVSVALGQTVRITCQGDSLRSYYASWYQQKPGQAPVLVIYGKNNRPSGIPDRFSGSSSGNTASLTITGAQAEDEADYYCNSRDSSGNHVVFGGGTKLTVLG
Take B9: the figures for the IC50 in [1] and in [2] were 150 nM and 55 nM, respectively.

B10: A010D09 (scFv)
scFv: QVQLVQSGAEVKKLGSSVKVSCKASGGTFSSYAISWVRQAPGQGLEWMGGIIPIFGTANYAQKFQGRVTITADESTSTAYMELSSLRSEDTAVYYCARDLSRLGMDVWGQGTTVTVSSGGGGSGGGGSGGGGSDIQMTQSPSTLSASIGDRVTITCRASEGIYHWLAWYQQKPGKAPKLLIYKASSLASGAPSRFSGSGSGTDFTLTISSLQPDDFATYYCQQYSNYPLTFGGGTKLEIKR
With B10, the figures for the IC50 in assay [11], in assay [1] and in assay [4] were 3 nM, 12 nM and 2.3 nM, respectively.
